What was measured:
Experiment in all cases: cell-based or functional assay
[1] = molecular target: T1, AVR3a homolog from Phytophthora palmivora designated as L3B (Phytophthora palmivora)
T1 sequence: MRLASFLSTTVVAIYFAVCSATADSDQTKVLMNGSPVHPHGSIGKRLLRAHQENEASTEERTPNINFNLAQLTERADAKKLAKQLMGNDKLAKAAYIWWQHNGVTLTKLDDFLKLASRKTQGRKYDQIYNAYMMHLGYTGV

[2] = molecular target: AVR3a^KI effector protein of Phytophthora infestans (Phytophthora infestans) (UniProt Q572D3)
[3] = molecular target: T2, AVR3a homolog from Phytophthora palmivora designated as L7B (Phytophthora palmivora)
T2 sequence: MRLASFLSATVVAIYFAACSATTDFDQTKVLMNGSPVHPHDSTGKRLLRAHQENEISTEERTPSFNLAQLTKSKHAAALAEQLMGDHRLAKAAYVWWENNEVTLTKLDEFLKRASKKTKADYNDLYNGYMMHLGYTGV

[4] = molecular target: T3, AVR3a homolog from Phytophthora palmivora designated as L6B (Phytophthora palmivora)
T3 sequence: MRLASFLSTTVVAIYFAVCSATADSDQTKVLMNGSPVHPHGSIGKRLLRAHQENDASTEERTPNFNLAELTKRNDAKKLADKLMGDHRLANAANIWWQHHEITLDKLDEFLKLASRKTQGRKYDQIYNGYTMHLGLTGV

B1: wild-type R3a protein (protein)
chain: MEIGLAVGGAFLSSALNVLFDRLAPHGDLLNMFQKHKDHVKLLKKLEDILLGLQIVLSDAENKQASNRHVSQWFNKLQNAVDGAENLIEQVNYEALRLKVEGQHQNLAETSNQQVSDLNLCFSDDFFLNIKDKLEETIETLEVLEKQIGRLGLKEHFGSTKQETRTPSTSLVDDSDIFGRQNDIEDLIDRLLSEDASGKKRTVVPIVGMGGLGKTTLAKAVYNDERVQIHFGLKAWFCVSEAFDAFRITKGLLQEIGSFDLKADDNLNQLQVKLKERLKGKKFLIVLDDVWNDNYNKWDELRNVFVQGDIGSKIIVTTRKESVALMMGNEQISMDNLSTESSWSLFKTHAFENMGPMGHPELEEVGKQIAAKCKGLPLALKTLAGMLRSKSEVEEWKRILRSEIWELPHNDILPALMLSYNDLPAHLKRCFSFCAIFPKDYPFRKEQVIHLWIANGLVPQEDVIIEDSGNQYFLELRSRSLFERVPNPSQGNTENLFLMHDLVNDLAQIASSKLCIRLEESQGSHMLEQSQHLSYSMGYGGEFEKLTPLYKLEQLRTLLPTCIDLPDCCHHLSKRVLHNILPRLTSLRALSLSCYEIVELPNDLFIKLKLLRFLDISRTEIKRLPDSICALYNLETLLLSSCYDLEELPLQMEKLINLRHLDISNTRLLKMPLHLSKLKSLQVLVGAKFLIGGLRMEDLGEVHNLYGSLSVVELQNVVDRREAVKAKMREKNHVDRLYLEWSGSSSADNSQTERDILDELRPHKNIKVVKITGYRGTNFPNWLADPLFLKLVKLSLRNCKNCYSLPALGQLPFLKFLSIREMHGITEVTEEFYGSWSSKKPFNCLEKLEFKDMPEWKQWDLLGSGEFPILEKLLIENCPELSLETVPIQLSSLKSFDVIGSPLVINFPLSILPTTLKRIKISDCQKLKLEQPTGEISMFLEELTLIKCDCIDDISPELLPRARKLWVQDWHNLTRFLIPTATETLDIWNCENVEILSVACGGTQMTSLTIAYCKKLKWLPERMQELLPSLKELHLSNCPEIESFPEGGLPFNLQQLAIRYCKKLVNGRKEWHLQRRLCLTALIIYHDGSDEEIVGGENWELPSSIQRLTIVNLKTLSSQHLKNLTSLQYLFIRGNLPQIQPMLEQGQCSHLTSLQSLQISSLQSLPESALPSSLSHLEISHCPNLQSLPESALPSSLSQLTINNCPNLQSLSESTLPSSLSQLEISFCPNLQYLPLKGMPSSLSELSIYKCPLLKPQLEFDKGEYWPNIAQFPTIKIDRECM
Cell death/HR intensity, pBIN::35S-R3a, 1dpi [1]: 0 | Cell death/HR intensity, pBIN::35S-R3a, 2dpi [1]: 1 | Cell death/HR intensity, pBIN::35S-R3a, 3dpi [1]: 2 | Cell death/HR intensity, pVnt1-R3a, 1dpi [1]: 0 | Cell death/HR intensity, pVnt1-R3a, 2dpi [1]: 0 | Cell death/HR intensity, pVnt1-R3a, 3dpi [1]: 0 | Cell death/HR intensity, pBIN::35S-R3a, 1dpi [2]: 1 | Cell death/HR intensity, pBIN::35S-R3a, 2dpi [2]: 1 | Cell death/HR intensity, pBIN::35S-R3a, 3dpi [2]: 2 | Cell death/HR intensity, pVnt1-R3a, 1dpi [2]: 2 | Cell death/HR intensity, pVnt1-R3a, 2dpi [2]: 3 | Cell death/HR intensity, pVnt1-R3a, 3dpi [2]: 4 | Cell death/HR intensity, pBIN::35S-R3a, 1dpi [3]: 0 | Cell death/HR intensity, pBIN::35S-R3a, 2dpi [3]: 1 | Cell death/HR intensity, pBIN::35S-R3a, 3dpi [3]: 1 | Cell death/HR intensity, pVnt1-R3a, 1dpi [3]: 0 | Cell death/HR intensity, pVnt1-R3a, 2dpi [3]: 1 | Cell death/HR intensity, pVnt1-R3a, 3dpi [3]: 1 | Cell death/HR intensity, pBIN::35S-R3a, 1dpi [4]: 0 | Cell death/HR intensity, pBIN::35S-R3a, 2dpi [4]: 0 | Cell death/HR intensity, pBIN::35S-R3a, 3dpi [4]: 0 | Cell death/HR intensity, pVnt1-R3a, 1dpi [4]: 0 | Cell death/HR intensity, pVnt1-R3a, 2dpi [4]: 0 | Cell death/HR intensity, pVnt1-R3a, 3dpi [4]: 0

— patent US20130097734A1
